In PMC5777247, “Cohesin SA2 is a sequence-independent DNA-binding protein that recognizes DNA replication and repair intermediates”:

Key:
SA2 (STAG2), full length [1] = biological target: T1, SA2 (STAG2), full length (human, UniProt Q8N3U4 1-1231); assay: fluorescence anisotropy; Anisotropy: 20 mM Hepes pH 7.5, 0.1 mM MgCl2, 0.5 mM DTT, 100 mM KCl, 1 nM DNA; AFM: 20 mM Hepes pH 7.5, 100 mM KCl, 0.1 mM MgCl2, room temperature, 20 min; conditions: protein: recombinant; tags: 6xHis; label: Alexa 488
T1 sequence: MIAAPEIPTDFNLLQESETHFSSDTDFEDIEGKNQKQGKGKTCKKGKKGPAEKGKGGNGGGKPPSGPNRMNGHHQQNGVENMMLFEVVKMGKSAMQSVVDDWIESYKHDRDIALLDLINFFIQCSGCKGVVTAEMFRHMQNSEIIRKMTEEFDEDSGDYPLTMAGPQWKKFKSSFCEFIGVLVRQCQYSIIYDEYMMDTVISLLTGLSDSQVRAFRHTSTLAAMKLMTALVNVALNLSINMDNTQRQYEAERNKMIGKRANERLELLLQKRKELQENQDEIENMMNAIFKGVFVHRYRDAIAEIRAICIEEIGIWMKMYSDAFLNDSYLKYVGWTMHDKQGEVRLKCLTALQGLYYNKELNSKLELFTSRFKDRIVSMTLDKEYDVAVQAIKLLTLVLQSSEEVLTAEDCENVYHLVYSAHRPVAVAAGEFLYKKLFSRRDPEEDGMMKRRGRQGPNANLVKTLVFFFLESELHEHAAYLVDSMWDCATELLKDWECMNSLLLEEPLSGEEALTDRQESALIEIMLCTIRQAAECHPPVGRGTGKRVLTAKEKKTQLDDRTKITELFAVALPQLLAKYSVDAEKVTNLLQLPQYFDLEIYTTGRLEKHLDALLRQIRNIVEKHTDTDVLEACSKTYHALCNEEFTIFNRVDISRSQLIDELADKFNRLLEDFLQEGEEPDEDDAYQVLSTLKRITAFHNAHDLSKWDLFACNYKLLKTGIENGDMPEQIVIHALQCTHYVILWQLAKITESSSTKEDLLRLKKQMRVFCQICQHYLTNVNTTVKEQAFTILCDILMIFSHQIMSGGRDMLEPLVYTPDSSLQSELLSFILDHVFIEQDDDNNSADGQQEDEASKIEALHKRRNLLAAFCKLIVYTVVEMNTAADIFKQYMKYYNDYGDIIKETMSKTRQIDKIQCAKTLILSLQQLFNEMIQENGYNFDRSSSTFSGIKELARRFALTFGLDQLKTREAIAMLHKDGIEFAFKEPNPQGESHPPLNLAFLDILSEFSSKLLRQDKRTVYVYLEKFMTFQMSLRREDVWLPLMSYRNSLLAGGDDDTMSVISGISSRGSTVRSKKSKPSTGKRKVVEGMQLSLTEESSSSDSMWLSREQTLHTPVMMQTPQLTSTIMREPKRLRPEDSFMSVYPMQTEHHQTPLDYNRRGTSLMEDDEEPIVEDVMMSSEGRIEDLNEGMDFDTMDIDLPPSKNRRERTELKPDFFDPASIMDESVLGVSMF

SA1 (STAG1), full length = biological target: T2, SA1 (STAG1), full length (UniProt Q8WVM7 1-1258); assay: as above; conditions: protein: recombinant; label: Alexa 488
T2 sequence: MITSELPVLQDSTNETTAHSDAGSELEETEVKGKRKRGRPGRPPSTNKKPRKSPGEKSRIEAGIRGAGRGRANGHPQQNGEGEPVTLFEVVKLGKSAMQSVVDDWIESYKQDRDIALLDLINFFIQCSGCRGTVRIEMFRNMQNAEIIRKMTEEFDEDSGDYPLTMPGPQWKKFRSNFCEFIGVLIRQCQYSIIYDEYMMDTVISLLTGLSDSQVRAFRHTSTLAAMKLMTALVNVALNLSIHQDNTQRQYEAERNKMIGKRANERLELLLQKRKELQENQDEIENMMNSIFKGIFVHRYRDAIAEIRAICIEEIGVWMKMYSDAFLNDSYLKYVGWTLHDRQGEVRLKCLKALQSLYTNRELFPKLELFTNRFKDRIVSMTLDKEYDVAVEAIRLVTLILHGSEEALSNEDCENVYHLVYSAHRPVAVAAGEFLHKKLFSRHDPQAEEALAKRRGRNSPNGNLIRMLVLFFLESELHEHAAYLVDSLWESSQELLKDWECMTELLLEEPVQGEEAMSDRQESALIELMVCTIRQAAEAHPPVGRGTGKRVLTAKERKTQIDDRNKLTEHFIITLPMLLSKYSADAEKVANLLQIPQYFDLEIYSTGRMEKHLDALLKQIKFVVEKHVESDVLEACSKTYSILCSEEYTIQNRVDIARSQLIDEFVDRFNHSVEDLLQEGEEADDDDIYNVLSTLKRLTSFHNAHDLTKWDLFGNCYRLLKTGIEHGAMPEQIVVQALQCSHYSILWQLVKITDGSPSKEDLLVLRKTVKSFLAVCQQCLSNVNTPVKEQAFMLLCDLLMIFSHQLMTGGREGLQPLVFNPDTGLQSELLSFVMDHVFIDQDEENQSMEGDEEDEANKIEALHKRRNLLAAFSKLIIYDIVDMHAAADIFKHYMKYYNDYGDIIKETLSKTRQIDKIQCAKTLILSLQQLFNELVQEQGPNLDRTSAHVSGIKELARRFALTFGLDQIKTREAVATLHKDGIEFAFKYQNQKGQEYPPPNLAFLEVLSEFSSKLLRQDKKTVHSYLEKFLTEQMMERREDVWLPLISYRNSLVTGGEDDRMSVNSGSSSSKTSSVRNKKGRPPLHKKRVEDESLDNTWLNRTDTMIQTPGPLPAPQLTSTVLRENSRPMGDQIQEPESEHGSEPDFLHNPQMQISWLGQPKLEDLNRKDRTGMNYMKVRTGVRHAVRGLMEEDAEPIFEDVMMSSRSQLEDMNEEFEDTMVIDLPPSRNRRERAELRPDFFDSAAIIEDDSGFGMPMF

SA2 1-1051 = biological target: T3, SA2 1-1051 (human, UniProt Q8N3U4 1-1051); assay: as above; conditions: protein: recombinant; tags: 6xHis; label: Alexa 488
T3 sequence: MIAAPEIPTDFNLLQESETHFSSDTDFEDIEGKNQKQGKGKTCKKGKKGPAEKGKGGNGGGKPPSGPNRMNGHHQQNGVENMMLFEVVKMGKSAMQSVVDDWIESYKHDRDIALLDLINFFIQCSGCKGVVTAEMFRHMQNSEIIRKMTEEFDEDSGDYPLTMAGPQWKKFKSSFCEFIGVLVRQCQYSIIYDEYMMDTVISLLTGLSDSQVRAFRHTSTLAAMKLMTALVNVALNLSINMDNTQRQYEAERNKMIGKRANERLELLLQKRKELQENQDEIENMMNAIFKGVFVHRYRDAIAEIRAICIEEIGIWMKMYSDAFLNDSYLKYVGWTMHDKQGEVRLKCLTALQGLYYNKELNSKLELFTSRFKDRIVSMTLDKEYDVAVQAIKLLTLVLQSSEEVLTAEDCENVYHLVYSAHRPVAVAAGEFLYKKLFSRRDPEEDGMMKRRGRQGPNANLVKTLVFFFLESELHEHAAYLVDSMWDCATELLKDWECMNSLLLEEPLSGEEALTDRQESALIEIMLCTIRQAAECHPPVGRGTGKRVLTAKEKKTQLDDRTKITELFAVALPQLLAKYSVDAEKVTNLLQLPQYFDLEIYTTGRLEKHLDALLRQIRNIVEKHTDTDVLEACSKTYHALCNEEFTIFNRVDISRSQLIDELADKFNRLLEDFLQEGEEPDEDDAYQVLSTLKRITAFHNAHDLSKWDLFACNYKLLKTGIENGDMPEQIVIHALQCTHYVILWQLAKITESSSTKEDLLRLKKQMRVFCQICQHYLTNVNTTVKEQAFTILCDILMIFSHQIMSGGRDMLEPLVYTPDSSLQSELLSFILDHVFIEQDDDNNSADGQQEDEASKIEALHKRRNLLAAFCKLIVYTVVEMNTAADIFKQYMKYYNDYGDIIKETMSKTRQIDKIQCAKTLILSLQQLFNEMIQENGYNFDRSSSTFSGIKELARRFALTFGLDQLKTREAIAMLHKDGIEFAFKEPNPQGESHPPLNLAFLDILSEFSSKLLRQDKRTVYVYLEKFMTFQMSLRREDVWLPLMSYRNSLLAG

SA2 (STAG2), full length [2] = biological target: T1, SA2 (STAG2), full length; assay: fluorescence anisotropy; no detectable binding (ND); Anisotropy: 20 mM Hepes pH 7.5, 0.1 mM MgCl2, 0.5 mM DTT, 100 mM KCl, 1 nM DNA; AFM: 20 mM Hepes pH 7.5, 100 mM KCl, 0.1 mM MgCl2, room temperature, 20 min; conditions: protein: recombinant; tags: 6xHis; label: 5' Alexa 488 on strand 1; blunt

B1: ss66 (Alexa ss66) (ssDNA)
DNA: CTGGATCCGTACAGTGTAAGGGTGAGTGGTTGGGTGTGTGGGTGTTGATGTAGAACAAGAATTCGA
- Kd (SA2 (STAG2), full length [1]): 41 ± 5.3 nM
- Kd (SA1 (STAG1), full length): 36.5 ± 0.2 nM
- Kd (SA2 1-1051): 28 nM

B2: ds25 (Alexa ss25 + ss-25-com) (dsDNA)
DNA 1: TGTCGCATAGTGTAGTCGGTCTTGT
DNA 2: ACAAGACCGACTACACTATGCGACA
- binding result (SA2 (STAG2), full length [2]): no binding
